Data taken from publication PMC11367644, “Structural basis for TNIP1 binding to FIP200 during mitophagy” (The Journal of Biological Chemistry, 2024).
Where two headings read alike, the source gives them in different places. Blank lines part the entries; values can stand above or below the molecule they belong to. Square brackets hold non-standard residues; d marks the D form. Ends that are not written are not given here. Peptide text beside a SMILES is read from it. pS = N[C@@H](COP(=O)(O)O)C(=O)O

Tests used:
[1] = target: T1, FIP200 claw domain (WT) (Homo sapiens, UniProt Q8TDY2); assay: ITC of TNIP1/CCPG1 FIR peptides with FIP200 claw domain WT; details: FIP200 claw WT 0.25 mM, peptide 4 mM, 20 °C, buffer B (50 mM NaH2PO4, 150 mM NaCl, pH 7.0), single binding site model, fitted value ± SD, N.D. = no detectable binding
T1 construct: human FIP200 claw domain1490–1594 was cloned; SUMO (N, cleaved yes); made in house; host or cells: Escherichia coli Rosetta (DE3)
Protocol: (§1) DNA fragment of human FIP200 claw domain1490–1594 was cloned into a modified pET28a (Novagen) plasmid, which contained an N-terminal SUMO-tag and a ULP1 protease cleavage site. All mutants were generated using a MutanBEST Kit (TaKaRa) and confirmed by DNA sequencing. The proteins were expressed in Escherichia coli Rosetta (DE3) cells (Novagen) cultured in LB medium at 37 °C to A600 = 1.0 and then shifted to 16 °C for 24 h after induction with 0.2 mM IPTG. Bacterial pellets were resuspended in buffer A (50 mM NaH2PO4 and 1 M NaCl, pH 7.0) and lysed by sonication. The crude lysate was then centrifuged at 14,000 rpm for 30 min at 4 °C. The supernatant was applied to a Ni-NTA column (QIAGEN), followed by size-exclusion chromatography using a Superdex 200 (GE Healthcare) column. After cleavage with ULP1 protease overnight at 16 °C to remove the SUMO-tag, an additional purification step was performed with a HiTrap SP FF column. The purified protein was concentrated to ∼20 mg/ml in buffer B (50 mM NaH2PO4, 150 mM NaCl, pH 7.0) and stored at −80 °C.
(§2) ITC assays were performed on a Microcal PEAQ-ITC instrument (Malvern) at 20 °C. The concentrations of proteins were determined spectrophotometrically. […] Thermodynamic data were analyzed with a single binding site model using MicroCal PEAQ-ITC Analysis Software provided by the manufacturer (Malvern).

[2] = test system: FIP200 claw domain / p-CCPG1 FIR2 complex; assay: Competitive fluorescence polarization: displacement of FITC-pCCPG1 FIR2 from FIP200 claw domain; format: binding, human; details: fit of Equation 3 to competitive FP data; FIP200 claw 4 μM, 50 nM FITC-pCCPG1 FIR2, buffer B, triplicate
From the text: Next, we investigated the binding of TNIP1 peptides to FIP200 in distinct states while competing with p-CCPG1 FIR2 peptide. Assuming that in solution, there is a thermodynamic equilibrium as expressed in Equation 1:(1) FIP200−TNIP1_pS123⇆w2u2FIP200⇄w1u1FIP200/p−CCPG1FIR2 where u1 and u2 represent the rates of forming the FIP200/p-CCPG1 FIR2 and FIP200-TNIP1_pS123 binding complexes, respectively, and w1 or w2 is the corresponding dissociation rate, then the probability of forming FIP200/p-CCPG1 FIR2 ( P1 ) can be expressed in the following form:(2) P1=u1w2/w1w2+u1w2+[…]
We further assumed that the binding process is diffusion-controlled, meaning that u1 and u2 are proportional to the concentrations of p-CCPG1 FIR2 and TNIP1_pS123, respectively. In addition, w1 and w2 are determined by the activation barrier in the dissociation free energy profile using the transition state theory. Consequently, the following two relations hold. […]
For competitive FP experiments, FIP200 claw domain at 4 μM and 50 nM FITC-pCCPG1 FIR2 in buffer B were mixed with increasing concentrations of unlabeled TNIP1_FIR^long or TNIP1 FIR_pS123^long peptides, respectively. The samples were measured with the CLARIOsta plate reader with FITC-fluorescence polarization filter set. […]

[3] = target: TNIP1_pS123 peptide; assay: ITC
[4] = target: T2, FIP200 claw domain K1568A (Homo sapiens, UniProt Q8TDY2, K1568A); assay: ITC with FIP200 claw domain mutant K1568A; format: binding; details: 20 °C, buffer B pH 7.0, fitted value ± error
T2 construct: human FIP200 claw domain1490–1594 was cloned; SUMO (N, cleaved yes); made in house; host or cells: Escherichia coli Rosetta (DE3)
Protocol: as §1, §2

[5] = target: T3, FIP200 claw domain R1573E (Homo sapiens, UniProt Q8TDY2, R1573E); assay: ITC with FIP200 claw domain mutant R1573E; details: 20 °C, buffer B pH 7.0, N.D. = no detectable binding
T3 construct: human FIP200 claw domain1490–1594 was cloned; SUMO (N, cleaved yes); made in house; host or cells: Escherichia coli Rosetta (DE3)
Protocol: as §1, §2

[6] = target: T4, FIP200 claw domain F1574A (Homo sapiens, UniProt Q8TDY2, F1574A); assay: ITC with FIP200 claw domain mutant F1574A; details: 20 °C, buffer B pH 7.0, N.D. = no detectable binding
T4 construct: human FIP200 claw domain1490–1594 was cloned; SUMO (N, cleaved yes); made in house; host or cells: Escherichia coli Rosetta (DE3)
Protocol: as §1, §2

[7] = target: T5, FIP200 claw domain K1569A (Homo sapiens, UniProt Q8TDY2, K1569A); assay: ITC with FIP200 claw domain mutant K1569A; details: 20 °C, buffer B pH 7.0, N.D. = no detectable binding
T5 construct: human FIP200 claw domain1490–1594 was cloned; SUMO (N, cleaved yes); made in house; host or cells: Escherichia coli Rosetta (DE3)
Protocol: as §1, §2

[8] = target: T6, FIP200 claw domain F1582A (Homo sapiens, UniProt Q8TDY2, F1582A); assay: ITC with FIP200 claw domain mutant F1582A; details: 20 °C, buffer B pH 7.0, N.D. = no detectable binding
T6 construct: human FIP200 claw domain1490–1594 was cloned; SUMO (N, cleaved yes); made in house; host or cells: Escherichia coli Rosetta (DE3)
Protocol: as §1, §2

[9] = target: T7, FIP200 claw domain Y1564A (Homo sapiens, UniProt Q8TDY2, Y1564A); assay: ITC with FIP200 claw domain mutant Y1564A; details: 20 °C, buffer B pH 7.0, N.D. = no detectable binding
T7 construct: human FIP200 claw domain1490–1594 was cloned; SUMO (N, cleaved yes); made in house; host or cells: Escherichia coli Rosetta (DE3)
Protocol: as §1, §2

[10] = target: the molecule itself; assay: crystal structure; FIP200 claw and TNIP1 FIR peptide mixed at a 1:5 molar ratio, 15 mg/ml; vapor diffusion at 16 °C or 20 °C; molecular replacement
[11] = target: T8, FIP200 claw domain (1490-1594) (human, UniProt Q8TDY2 1490-1594); assay: ITC; peptide (4 mM) injected into FIP200 claw protein (0.25 mM); 20 °C; buffer B (50 mM NaH2PO4, 150 mM NaCl, pH 7.0); single binding site model
T8 construct: the ITC N counts peptide per claw chain; also called FIP200 claw domain WT; WT; source: E. coli Rosetta (DE3), purified (Ni-NTA, Superdex 200, HiTrap SP FF); not shown: SUMO, N-terminal, cleaved

[12] = target: T9, human FIP200 claw domain (1490-1594) (human, UniProt Q8TDY2 1490-1594); assay: ITC
T9 chain: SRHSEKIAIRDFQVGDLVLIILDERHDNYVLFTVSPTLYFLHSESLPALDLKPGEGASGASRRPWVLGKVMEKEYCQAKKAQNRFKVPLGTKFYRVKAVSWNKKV

[13] = target: T10, FIP200 claw domain (1490-1594) D1516A (human, UniProt Q8TDY2 1490-1594, D1516A); assay: ITC; peptide (4 mM) injected into FIP200 claw protein (0.25 mM); 20 °C; buffer B (50 mM NaH2PO4, 150 mM NaCl, pH 7.0); single binding site model; details: both partners purified
T10 construct: source: E. coli Rosetta (DE3), purified (Ni-NTA, Superdex 200, HiTrap SP FF); not shown: SUMO, N-terminal, cleaved

[14] = target: T11, FIP200 claw domain (1490-1594) R1514A (human, UniProt Q8TDY2 1490-1594, R1514A); assay: as above; details: both partners purified
T11 construct: source: E. coli Rosetta (DE3), purified (Ni-NTA, Superdex 200, HiTrap SP FF); not shown: SUMO, N-terminal, cleaved

[15] = target: T12, FIP200 claw domain (1490-1594) Q1566A (human, UniProt Q8TDY2 1490-1594, Q1566A); assay: as above; details: both partners purified
T12 construct: source: E. coli Rosetta (DE3), purified (Ni-NTA, Superdex 200, HiTrap SP FF); not shown: SUMO, N-terminal, cleaved

[16] = target: T13, FIP200 claw domain (1490-1594) K1568A (human, UniProt Q8TDY2 1490-1594, K1568A); assay: as above; details: both partners purified
T13 construct: source: E. coli Rosetta (DE3), purified (Ni-NTA, Superdex 200, HiTrap SP FF); not shown: SUMO, N-terminal, cleaved

T4 sequence (Q8TDY2 1490-1594 F1574A): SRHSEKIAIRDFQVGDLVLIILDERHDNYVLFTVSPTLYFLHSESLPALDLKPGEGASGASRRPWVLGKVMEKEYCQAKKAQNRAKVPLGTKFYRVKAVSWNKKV
T2 sequence (Q8TDY2 1490-1594 K1568A): as the sequence (Q8TDY2 1490-1594 F1574A) above, with K79A, A85F counted along it
T3 sequence (Q8TDY2 1490-1594 R1573E): as the sequence (Q8TDY2 1490-1594 F1574A) above, with R84E, A85F counted along it
T7 sequence (Q8TDY2 1490-1594 Y1564A): as the sequence (Q8TDY2 1490-1594 F1574A) above, with Y75A, A85F counted along it
T6 sequence (Q8TDY2 1490-1594 F1582A): as the sequence (Q8TDY2 1490-1594 F1574A) above, with A85F, F93A counted along it
T5 sequence (Q8TDY2 1490-1594 K1569A): as the sequence (Q8TDY2 1490-1594 F1574A) above, with K80A, A85F counted along it

- KD [1]: no detectable binding affinity
Molecule: SSGTSSEFEVV [TNIP1]

- a0 (constant of Equation 3, y1 = 1/(1+a0[TNIP1])) [2]: 0.0006 µM⁻¹
- KD [1]: Weak binding
Molecule: SSGTSSEFEVVTPEEQ [TNIP1^long, unmodified TNIP1 FIR peptide with an elongated C terminus]

- ratio to parent [3]: 0.79
Molecule: human FIP200 claw domain (1490-1594) (from UniProt Q8TDY2) Q1566A

- KD [4]: Weak binding
- KD [5]: significantly abolished
- KD [6]: significantly abolished
- KD [7]: significantly abolished
- KD [8]: significantly abolished
- KD [9]: significantly abolished
Molecule: CC(C)[C@H](NC(=O)[C@@H](NC(=O)[C@H](CCC(=O)O)NC(=O)[C@H](Cc1ccccc1)NC(=O)[C@H](CCC(=O)O)NC(=O)[C@H](COP(=O)(O)O)NC(=O)[C@H](CO)NC(=O)[C@@H](NC(=O)CNC(=O)[C@H](CO)NC(=O)[C@@H](N)CO)[C@@H](C)O)C(C)C)C(=O)O [TNIP1_pS123] (H-SSGTS[pS]EFEVV-OH)

B1: human FIP200 claw domain (1490-1594) (domain or fragment, UniProt Q8TDY2 1490-1594, looked up)
chain: T9 chain
notes: Forms a homodimer in the crystals; source: E. coli Rosetta (DE3), purified (Ni-NTA, Superdex 200, HiTrap SP FF); not shown: SUMO, N-terminal, cleaved
- binding result [10]: binds

- stoichiometry N [11]: 1.33
- Kd [12]: 195 µM
B2: TNIP1_pS122pS123 peptide (peptide)
chain: SSGT[pS][pS]EFEVV

- stoichiometry N [11]: 0.96
- Kd [12]: 260 µM
B3: TNIP1_pS122 peptide (peptide)
chain: SSGT[pS]SEFEVV

- Kd ([11]; both partners purified): 9.3 µM
- stoichiometry N ([11]; both partners purified): 1.1
B4: pCCPG1 FIR2 peptide (peptide)
peptide: TASDD[pS]DIVTLEPPK
notes: FIR2 motif of the autophagy receptor CCPG1; source: synthetic peptide (GL Biochem, Shanghai)

- Kd [13]: 175 µM
- stoichiometry N [13]: 1.18
- Kd [14]: 178 µM
- stoichiometry N [14]: 1.48
- Kd [15]: 126 µM
- stoichiometry N [15]: 1.49
- stoichiometry N [11]: 1.01
- Kd [12]: 160 µM
B5: TNIP1_pS123 peptide (peptide)
peptide: SSGTS[pS]EFEVV
notes: FIR motif of TNIP1; source: synthetic peptide (GL Biochem, Shanghai)

- Kd ([11]; both partners purified): 84.3 µM
- stoichiometry N ([11]; both partners purified): 0.96
B6: CCPG1 FIR2 peptide (unmodified) (peptide)
peptide: TASDDSDIVTLEPPK
notes: as for B4

- Kd [16]: 133 µM
- stoichiometry N [16]: 0.93
- Kd [13]: 35 µM
- stoichiometry N [13]: 0.98
- Kd [14]: 43.8 µM
- stoichiometry N [14]: 0.97
- Kd [15]: 45 µM
- stoichiometry N [15]: 0.96
- Kd ([11]; both partners purified): 45.4 µM
- stoichiometry N ([11]; both partners purified): 1.03
B7: TNIP1_pS123^long peptide (peptide)
peptide: SSGTS[pS]EFEVVTPEEQ
notes: FIR motif of TNIP1 with an elongated C terminus (T129-Q133); source: synthetic peptide (GL Biochem, Shanghai)
